# Target: T1, recombinant human Strep-tagged CYPA (human, UniProt P62937 1-165)
# T1 construct: Cyclophilin A (CYPA, PPIA), human; The methods also call such proteins Streptavidin-tagged; also called CYPA-Strep; source: E. coli BL21(DE3), purified (Strep-Tactin Superflow Plus cartridge, PD10 desalting)
# Experiment: pull-down; recombinant Strep-tagged CYPA and HIS-tagged FHA-BRCT1 combined, 30 min 4 °C; MagStrep type3 XT beads 1 h 4 °C in 100 mM Tris-Cl pH 8, 150 mM NaCl, 1 mM EDTA, 0.5 mg/ml BSA; elution with 50 mM biotin; western blot; beads alone as control
# Settings: both partners purified
# T1 sequence (P62937 whole entry): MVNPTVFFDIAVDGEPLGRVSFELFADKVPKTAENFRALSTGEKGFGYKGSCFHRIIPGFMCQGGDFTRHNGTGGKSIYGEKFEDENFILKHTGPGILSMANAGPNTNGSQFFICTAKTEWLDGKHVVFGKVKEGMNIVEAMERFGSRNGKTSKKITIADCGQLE
binder,measurement,value
"recombinant HIS-tagged human NBS1 peptide composed of FHA-linker-BRCT1 (aa 1-182), wild type (domain or fragment, UniProt O60934 1-182, looked up, NBS1 (nibrin), human, UniProt O60934, FHA-linker-BRCT1, aa 1-182; also called WT HIS-tagged FHA-BRCT1; NBS1 FHA-BRCT1 peptide; source: E. coli BL21(DE3), purified (HiTrap TALON Crude, PD10 desalting)) MWKLLPAAGPAGGEPYRLLTGVEYVVGRKNCAILIENDQSISRNHAVLTANFSVTNLSQTDEIPVLTLKDNSKYGTFVNEEKMQNGFSRTLKSGDGITFGVFGSKFRIEYEPLVACSSCLDVSGKTALNQAILQLGGFTVNNWTEECTHLVMVSVKVTIKTICALICGRPIVKPEYFTEFLK",binding result,binds

# — PMC11315929, “A novel role for the peptidyl-prolyl cis-trans isomerase Cyclophilin A in DNA-repair following replication fork stalling via the MRE11-RAD50-NBS1 complex” (EMBO Reports, 2024)
